The values below come from PMC7884259 (Journal of medicinal chemistry, 2020).

Where no end group is shown, it is not given here.

What is called Kd is the constant that tells how readily two partners part at equilibrium. Low values mean a tighter complex, high ones a looser complex.

The target in experiment [1] is T1, ATAD2B bromodomain (residues 953–1085) (human, UniProt Q9ULI0 953-1085).
T1 sequence (looked up): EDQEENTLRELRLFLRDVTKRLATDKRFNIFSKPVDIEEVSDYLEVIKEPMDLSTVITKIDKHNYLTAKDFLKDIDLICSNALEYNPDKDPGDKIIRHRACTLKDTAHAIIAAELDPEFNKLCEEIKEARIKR
Description: ITC.

For experiment [2], the target named is T2, ATAD2B bromodomain N1038A (human, UniProt Q9ULI0 953-1085, N1038A).
T2 sequence (looked up): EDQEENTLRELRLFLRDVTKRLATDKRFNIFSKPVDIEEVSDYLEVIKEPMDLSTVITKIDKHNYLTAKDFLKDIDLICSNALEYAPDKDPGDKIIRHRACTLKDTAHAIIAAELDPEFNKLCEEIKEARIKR
Description: ITC. Background: In ITC the heat of successive injections is recorded.

Turning to SGRGK(Ac)QGGKARA-NH2 [H2AK5ac (res 1–12)], in experiment [1], binding was put at a Kd of 42.5 µM.
In experiment [1], SGRGKGGK(Ac)GL-NH2 [H4K8ac (res 1–10)] yielded a Kd of 1160 µM.
Take SGRGK(Ac)GGK(Ac)GL-NH2 [H4K5acK8ac (res 1–10)]: the Kd stood at 28.1 µM in experiment [1] and 623 µM in experiment [2].
As to SGRGK(Ac)GGKGL-NH2 [H4K5ac (res 1–10)], in experiment [1], binding was characterised by a dissociation constant (Kd) of 48 µM.
